Biological target: receptor tyrosine kinase-like orphan receptor 1 (ROR1) (human) (UniProt Q01973)
Test: flow cytometry (FSC against control stain) of PDX tumour cells stained with the control antibody, same ROR1+ gate

UniProt Q01973, sequence (Q01973 30-937): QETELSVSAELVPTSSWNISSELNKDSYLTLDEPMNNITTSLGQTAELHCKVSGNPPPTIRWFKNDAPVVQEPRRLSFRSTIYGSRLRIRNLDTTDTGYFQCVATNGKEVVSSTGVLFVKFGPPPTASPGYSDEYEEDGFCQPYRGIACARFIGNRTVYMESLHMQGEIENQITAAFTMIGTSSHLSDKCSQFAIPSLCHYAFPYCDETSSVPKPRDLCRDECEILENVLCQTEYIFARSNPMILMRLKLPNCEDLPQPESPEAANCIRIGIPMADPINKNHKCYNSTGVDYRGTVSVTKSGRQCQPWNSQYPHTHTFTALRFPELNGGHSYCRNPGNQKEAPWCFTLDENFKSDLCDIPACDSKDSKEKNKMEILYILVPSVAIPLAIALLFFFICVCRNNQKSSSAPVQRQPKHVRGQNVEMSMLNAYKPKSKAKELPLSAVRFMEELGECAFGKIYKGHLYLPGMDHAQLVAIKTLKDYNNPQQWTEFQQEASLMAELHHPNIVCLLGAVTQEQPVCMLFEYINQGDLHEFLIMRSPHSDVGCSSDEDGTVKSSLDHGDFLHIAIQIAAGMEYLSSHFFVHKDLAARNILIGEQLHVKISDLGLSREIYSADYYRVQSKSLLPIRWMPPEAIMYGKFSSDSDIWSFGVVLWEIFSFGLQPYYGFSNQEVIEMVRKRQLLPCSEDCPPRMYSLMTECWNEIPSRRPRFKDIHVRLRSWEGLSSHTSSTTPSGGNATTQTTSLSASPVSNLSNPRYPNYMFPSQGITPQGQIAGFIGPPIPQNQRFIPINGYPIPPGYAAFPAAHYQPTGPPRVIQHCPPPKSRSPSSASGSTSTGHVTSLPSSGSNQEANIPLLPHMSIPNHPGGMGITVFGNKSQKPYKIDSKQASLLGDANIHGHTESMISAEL

- % of cells in the ROR1+ gate: 0.7%
Substance: Control (antibody)

Reference: patent US20210085786A1
